Target: TBC1D9 (UniProt Q6ZT07)
Assay: co-IP of GFP-TBK1 and FLAG-TBC1D9
Conditions: reference: GFP-TBK1 wild type; sites S172

TBK1 (from UniProt Q9UHD2) GFP-TBK1 S172A
binding against the reference: lost

— PMC7005872
